± gives the standard deviation.

This data set can be described thus: protein stability index of a GFP-peptide fusion (GPS, HEK-293T) (PSI 1-6); higher = more stable.
Setting [1] is: treatment: DMSO, c terminus: a fixed tail appended.
Where [2] appears, read: treatment: MLN4924 1 uM, 8 h, c terminus: a fixed tail appended.
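Further: 24-mer peptide tiles fused after GFP, lentivirally expressed, FACS-sorted into six equal bins by GFP/DsRed ratio, decoded by Illumina sequencing, PSI is the read-weighted mean bin number.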

For TFVSGGCDKKAMVWDMRSGQCVQA [GNB5], the protein stability index under setting [1] is 2.68 ± 0.2 and the protein stability index under setting [2] worked out at 2.89 ± 0.46.

The sequence DVSSTEEFLELSPQKLKEVISLEK [GAN] yielded a protein stability index under setting [1] of 4.88 ± 0.18 and a protein stability index under setting [2] of 4.87 ± 0.16.

As to LEDELDKSVQGTGLAFIAFTEAMT [SLC6A17], the protein stability index was determined as 2.73 ± 0.35 under setting [1] and 2.82 ± 0.51 under setting [2].

In the case of VLERAACLRRCKRTLPAFQVPYPP [P3H4], the protein stability index by setting is: under setting [1], 2.16 ± 0.29; under setting [2], 2.16 ± 0.19.

Turning to FPAKYIYDPWNAPEGIQKVAKCLI [CRY1], the protein stability index came to 2.85 ± 0.39 under setting [1] and 2.43 ± 0.32 under setting [2].

HEKERPEHKSLESLADGGSASPIK [FANCE]: the protein stability index amounted to 5.49 ± 0.21 under setting [1] and 5.31 ± 0.25 under setting [2].

For the sequence AAKARDTGILIFAIGVGQVDFNTL [MATN2], the protein stability index by setting is: under setting [1], 2.58 ± 1.1; under setting [2], 3.16 ± 1.

Take TALPPMNEARHNFGIVEIDGMLYI [GAN]: the protein stability index turned out to be 2.24 ± 0.31 under setting [1] and 2.08 ± 0.26 under setting [2].

Turning to MADADEGFGLAHTPLEPDAKDLPC [TBX5], the protein stability index is, setting by setting: under setting [1], 5.24 ± 0.27; under setting [2], 5.13 ± 0.22.

With PYSKTLVLQTSEGKALQQYPSERE [TRIM9], the protein stability index stood at 4.63 ± 0.088 under setting [1] and 4.66 ± 0.21 under setting [2].

DLENRCQSLTEDLEFRKSMYEEEI [LMNB1]: the protein stability index under setting [1] amounted to 4.91 ± 0.056 and the protein stability index under setting [2] was determined as 4.76 ± 0.13.

As for FSVTGGTEEKSSLLMSCLACDTWA [RPAIN], the protein stability index runs as follows: under setting [1], 2.27 ± 0.26; under setting [2], 2.27 ± 0.25.

In the case of PWNCILLTKDEAAAHLKLTSIEEG [IQUB], the protein stability index reads like this: under setting [1], 3.12 ± 0.1; under setting [2], 3.44 ± 0.07.

In turn, RQMAFDFARVKKGADGVMRTMAPE [SNAP91] returned a protein stability index under setting [1] of 3.47 ± 0.38 and a protein stability index under setting [2] of 3.43 ± 0.16.

With QFLEEINKWTVQYNVSPLSWNVAV [PTPN9], the protein stability index by setting is: under setting [1], 2.79 ± 0.82; under setting [2], 2.87 ± 0.49.

As for APAGDKGFQPPSPSLRPRPASSIS [DMRTC1], the protein stability index is 4.61 ± 0.15 under setting [1] and 4.57 ± 0.26 under setting [2].

Turning to FFFAVLHAIYSLSYPMRRSYRYKL [STEAP1], the protein stability index worked out at 2.31 ± 0.4 under setting [1] and 2.43 ± 0.53 under setting [2].

On to VSKGAESSRSSEESSSDSGSSDSE [BRD3], for which the protein stability index turned out to be 5.61 ± 0.24 under setting [1] and 5.6 ± 0.41 under setting [2].

As for LRQQQDEAYLASLRADQEKERKKR [FAF2], the protein stability index by setting is: under setting [1], 4.36 ± 0.57; under setting [2], 4.53 ± 0.4.

In the case of LFAPLKLQMEFKAVQQVQRLPFLS [POMP], the protein stability index runs as follows: under setting [1], 2.51 ± 0.82; under setting [2], 2.46 ± 0.75.

The sequence PVHTTILNPHIHLMGDESACIAYI [CAMK2A] registered a protein stability index under setting [1] of 2.42 ± 0.17 and a protein stability index under setting [2] of 2.42 ± 0.082.

Regarding IFMLCTLVLAIPLLLILVSYVHIL [OR10K2], the protein stability index is, setting by setting: under setting [1], 3.35 ± 0.26; under setting [2], 3.18 ± 0.36.

Take ELERKLREVMESAVGNSSGSGQNE [FBXO28]: the protein stability index reads like this: under setting [1], 4.11 ± 0.19; under setting [2], 4.24 ± 0.38.

In the case of PHWLDKWMLTRKQFGLLSFFFAVL [STEAP1], the protein stability index reads like this: under setting [1], 2.27 ± 0.28; under setting [2], 2.26 ± 0.38.

Turning to QQTHNIEKAHECTDCGKAFLKKSQ [ZNF649], the protein stability index is, setting by setting: under setting [1], 3.93 ± 0.3; under setting [2], 4.02 ± 0.17.

For the sequence HRAVASRSEEAVQVLIKHSADVNA [ANKRD44], the protein stability index is, setting by setting: under setting [1], 4.5 ± 0.28; under setting [2], 4.47 ± 0.31.

For the sequence MGWKKACDELELHQRFLREGRFWK [ZMYND11], the protein stability index is, setting by setting: under setting [1], 2.52 ± 0.19; under setting [2], 2.99 ± 0.18.

Take PRLSQLSVTDVTTSSLRLNWEAPP [TNXB]: the protein stability index under setting [1] is 3.5 ± 0.4.

In turn, YDRRVIRGNTYALQTGPLLGRPDS [RSPH3] yielded a protein stability index under setting [1] of 3.29 ± 0.24 and a protein stability index under setting [2] of 3.56 ± 0.25.

In the case of MDPQNQHGSGSSLVVIQQPSLDSR [SPRY1], the protein stability index is 4.69 ± 0.096 under setting [1] and 4.65 ± 0.13 under setting [2].

As to AMAIINGSLYVFGGTTGYIYSTDL [KLHDC10], the protein stability index by setting is: under setting [1], 3.16 ± 0.2; under setting [2], 2.74 ± 0.33.

Turning to QETPGPREALTRLQELCYQWLRPH [ZSCAN9], the protein stability index runs as follows: under setting [1], 2.54 ± 0.12; under setting [2], 2.6 ± 0.17.

For EQLLARGYAVNVFDIQQGFDNPQV [NSDHL], the protein stability index is, setting by setting: under setting [1], 2.77 ± 0.19; under setting [2], 3.54 ± 0.24.

Take SLQSCMHFQPNSPASDLEAALEAA [NANOGP8]: the protein stability index is, setting by setting: under setting [1], 4.6 ± 0.22; under setting [2], 4.63 ± 0.27.

IQGADTIRCVYILDPWFAGSSNVG [CRY1] came in with a protein stability index under setting [1] of 2.81 ± 0.56 and a protein stability index under setting [2] of 2.6 ± 0.54.

On to LSEVKPPPPPPPAQTFLFQGQPVV [TRADD], for which the protein stability index runs as follows: under setting [1], 3.89 ± 0.38; under setting [2], 4.07 ± 0.2.

Consider GEINVEMDAAPGVDLSRILNEMRD [KRT17], for which the protein stability index is 4.03 ± 0.22 under setting [1] and 3.99 ± 0.14 under setting [2].

In the case of PSITRKRRYVASVSLHDRIYVIGG [KLHL12], the protein stability index under setting [1] was 2.24 ± 0.26 and the protein stability index under setting [2] came out at 2.13 ± 0.4.

Regarding HMESRMVTETEETQEKKAESKEPI [SDE2], the protein stability index came out at 5.48 ± 0.17 under setting [1] and 5.46 ± 0.47 under setting [2].

LTRVLAEMREQYEAMAEKNRRDVE [KRT15]: the protein stability index is, setting by setting: under setting [1], 3.47 ± 0.31; under setting [2], 3.93 ± 0.28.

Turning to GGGPEATLSISDVRTLSEPPDKGE [ZBTB22], the protein stability index reads like this: under setting [1], 5.33 ± 0.29; under setting [2], 5.44 ± 0.31.

Take EALCEEDLLLWIQKHTEVETVDLV [DENND6A]: the protein stability index by setting is: under setting [1], 3.37 ± 0.25; under setting [2], 3.08 ± 0.27.

For the sequence ISKKFGDMSYSIRHSISMPAMRNS [TPD52L1], the protein stability index under setting [1] turned out to be 2.51 ± 0.41 and the protein stability index under setting [2] turned out to be 2.65 ± 0.52.

Consider LSASSPRMLHRSTQTTNDGVCQSM [ZMYND11], for which the protein stability index reads like this: under setting [1], 4 ± 0.24; under setting [2], 4.34 ± 0.18.

On to STQIRALTEQQEQLRGQLQDLDSR [RASAL3], for which the protein stability index is, setting by setting: under setting [1], 5.14 ± 0.27; under setting [2], 5.12 ± 0.19.

As for DREGPSSSKLVTKKAPQPAKPRLA [HDAC6], the protein stability index runs as follows: under setting [1], 5.09 ± 0.3; under setting [2], 5.06 ± 0.35.

YKCSWCGKSFSQNTNLHTHQRTHT [ZNF75A]: the protein stability index came to 4.65 ± 0.45 under setting [1] and 4.29 ± 0.54 under setting [2].

Turning to DSEEDEKMEEDIKEEEEKDHNEAM [PCMTD1], the protein stability index reads like this: under setting [1], 5.81 ± 0.082; under setting [2], 5.64 ± 0.2.

Consider VRKKERGREEKCVWKHGITPPLKN [TAF7L], for which the protein stability index by setting is: under setting [1], 3.85 ± 0.41; under setting [2], 3.83 ± 0.3.

Take SEVFGPERMPPSGAARSFQEVTEP [PXN]: the protein stability index runs as follows: under setting [1], 4.77 ± 0.32; under setting [2], 5.19 ± 0.21.

With IQDNGTGIRKEDLDIVCERFTTSK [MLH1], the protein stability index came to 4.17 ± 0.2 under setting [1] and 4.46 ± 0.33 under setting [2].

In the case of GPALWLRSTCVYVCALSALPAGPL [PLEKHN1], the protein stability index under setting [1] is 2.98 ± 0.63 and the protein stability index under setting [2] is 3.27 ± 0.74.

In the case of GRKRRQTSMTDFYHSKRRLIFSKR [CDKN1A], the protein stability index stood at 3.35 ± 0.51 under setting [1] and 4.07 ± 0.38 under setting [2].

With RTMDIPRSVQNFRFFASSSLHHTS [ALDH8A1], the protein stability index under setting [1] worked out at 2.43 ± 0.15 and the protein stability index under setting [2] was 2.62 ± 0.2.

As to GVYGLQRNLLVENIIDIYKQESTR [TRIM55], the protein stability index reads like this: under setting [1], 2.61 ± 0.47; under setting [2], 2.95 ± 0.49.

With IRKEMKLLEQAGSLKGSLSVEEQL [CRYL1], the protein stability index is 4.54 ± 0.53 under setting [1] and 4.372 ± 0.012 under setting [2].

Consider SDKDKAVGIFNTVINPMLNPIIYS [OR3A1], for which the protein stability index under setting [1] is 2.54 ± 0.3 and the protein stability index under setting [2] was 2.71 ± 0.25.

Turning to CSCQADPRHQGHRVQPVKDTAHDF [TRIM35], the protein stability index by setting is: under setting [1], 3.42 ± 0.31; under setting [2], 3.56 ± 0.14.

Regarding SEDAVGGATLGQTTSEEAVGGATL [HDAC6], the protein stability index reads like this: under setting [1], 5.54 ± 0.15; under setting [2], 5.18 ± 0.4.

Regarding ISSGLRGCMLIELALRGRLQLEAC [GOLPH3], the protein stability index under setting [1] turned out to be 3.22 ± 0.62 and the protein stability index under setting [2] is 2.67 ± 0.21.

Regarding RRCGKCFCDRCCSQKVPLRRMCFV [ZFYVE21], the protein stability index runs as follows: under setting [1], 2.31 ± 0.45; under setting [2], 2.31 ± 0.39.

For the sequence RVGIFLDYEAGTLSFYNVTDRSHI [TRIM39], the protein stability index under setting [1] is 2.6 ± 0.77 and the protein stability index under setting [2] turned out to be 2.26 ± 0.35.

Regarding KQQENATSCSLELIGDLIGHSSSV [WDR41], the protein stability index is, setting by setting: under setting [1], 3.02 ± 0.37; under setting [2], 3.17 ± 0.11.

PSLEAGNPAPAAPCPLGEPKTQAC [MYCL] came in with a protein stability index under setting [1] of 5.26 ± 0.14 and a protein stability index under setting [2] of 5.32 ± 0.11.

Take AQNDLDISRIKRGNTTLESTDTL [P2RY14]: the protein stability index by setting is: (treatment: DMSO, c terminus: native) 5.26 ± 0.17; (treatment: MLN4924 1 uM, 8 h, c terminus: native) 5.25 ± 0.22.

Consider SGITIPKPPKPPDKPLMPYMRYSR [SMARCE1], for which the protein stability index amounted to 2.68 ± 0.25 under setting [1] and 3.32 ± 0.23 under setting [2].

On to ASSSRSVRTTRGKRKRVDVEESEA [LMNB1], for which the protein stability index is 5.22 ± 0.39 under setting [1] and 5.49 ± 0.29 under setting [2].

As to LSPAGSSQEAADTPDTRHPCSLGS [YJU2B], the protein stability index under setting [1] stood at 5.24 ± 0.21 and the protein stability index under setting [2] is 5.3 ± 0.23.

RMGLMKANHVFFLLYLLHILLLDG [FADS1]: the protein stability index runs as follows: under setting [1], 2.94 ± 0.83; under setting [2], 2.68 ± 0.52.

EEAKGLLDKVKDGGYRPAEDKIFP [ZBED1]: the protein stability index by setting is: under setting [1], 4.84 ± 0.3; under setting [2], 4.78 ± 0.41.

DNLLRSTQKLSHSTKPSGSPLEEK [MATN2]: the protein stability index was determined as 5.31 ± 0.37 under setting [1] and 5.07 ± 0.37 under setting [2].

Take HEGEDQFLSLEASTETLVHVSDED [DLC1]: the protein stability index under setting [1] was 5.61 ± 0.17 and the protein stability index under setting [2] was determined as 5.58 ± 0.32.

The record behind these values is the supplement of paper PMC10567573.
